In the supplement of paper PMC10201428:
± gives the standard deviation of the averaged measurements.

Experiments:
[1] = tested on: VchCAST RNA-guided transposition machinery (E. coli BL21(DE3) host, lacZ target); assay: relative integration efficiency (T-RL orientation) vs wild-type transposon end (log2 (normalized fold change)); transposon end mutated: right end (5 bp flank + 75 bp right end); higher = more efficient transposition
Method in brief: (§1)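 Each barcoded pool, 1549 left-end or 1849 right-end transposon variants in a pUC57 mini-transposon donor, went into E. coli BL21(DE3) with a T7-driven effector plasmid (CRISPR array, tniQ-cas8-cas7-cas6, tnsA-tnsB-tnsC). Plates contained 0.1 mM IPTG and were held at 37°C for 18 h. Input plasmids and genomic integration junctions were PCR-amplified and read by Illumina sequencing, with two biological output replicates and four reference barcodes. Relative integration efficiency is the fold change of output over input barcode abundance, normalised to the reference barcodes and log-transformed.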

[2] = tested on: VchCAST RNA-guided transposition machinery (E. coli BL21(DE3) host, lacZ target); assay: relative integration efficiency (T-LR orientation) vs wild-type transposon end (log2 (normalized fold change)); transposon end mutated: right end (5 bp flank + 75 bp right end); higher = more efficient transposition
Method in brief: as §1

Sequence: ACATTTGTTGATACAACCATAAAATGATAATTACACCCATAAATTGATAATTATCACACCCATAAATTGATATTGAAGATGATCATAGTCAGACCAACATTGCTACGACCCGTATTCGCACCGACAC
- relative integration efficiency (log2) [1]: 0.3393 ± 0.002
- relative integration efficiency (log2) [2]: 0.0825 ± 0.095

Sequence: ACATTTGTTGATACAACCATAAAATCATCATTACCCCCATAAATTGATAATTATCCCACCCAATTTAACTATAACGCTCTGATCATAGTCAGACCAACATTGCTACGACCCGTATTCGCACCGACAC
- relative integration efficiency (log2) [1]: -3.815 ± 0.027
- relative integration efficiency (log2) [2]: 0.215 ± 0.23

Sequence: ACATTTGTTGATACAACCATATATTGATATCTCCAACCATAAGTTGATATTTTTCACAACCATATATTGATATCTCCTCTGATCATAGTCAGACCAACATTGCTACGACCCGTATTCGCACCGACAC
- relative integration efficiency (log2) [1]: -0.17 ± 0.037
- relative integration efficiency (log2) [2]: 0.0875 ± 0.82

Sequence: ACATTTGTTGATACAACCATAAAATGATAATTACACCCATAAATTGATAATTATCACACCCATAAATTGATATTGCCTCTTCATGGTCTAAACTTCAGTTTCAAATGCTGATTTTCAGCACCGACAC
- relative integration efficiency (log2) [1]: 0.164 ± 0.26
- relative integration efficiency (log2) [2]: 0.262 ± 0.23

Sequence: ACATTTGTTGATACAACCATAAAATGATAATTACACCCATAAATTGATAATTATCACAGGGTTAAATTGATATTGCCTCTGATCATAGTCAGACCAACATTGCTACGACCCGTATTCGCACCGACAC
- relative integration efficiency (log2) [1]: -0.425 ± 0.14
- relative integration efficiency (log2) [2]: 2.33 ± 0.045

Sequence: ACATTTGTTGATACAACCATAAAATGATAATTACACCCATAAATTGATAATTATCACACCCATAAATTGATATTGCCTCTGATCATAGTCAGACAACCATAAAATGATAATTACCAAGCACCGACAC
- relative integration efficiency (log2) [1]: -0.231 ± 0.065
- relative integration efficiency (log2) [2]: -0.436 ± 0.47

Sequence: ACATTTGTTGATACAACCATAAAATGATAATTACACCCATAAATTGATAATTATCACACGGATAAATTGATATTGCCTCTGATCATAGTCAGACCAACATTGCTACGACCCGTATTCGCACCGACAC
- relative integration efficiency (log2) [1]: -0.238 ± 0.062
- relative integration efficiency (log2) [2]: 1.28 ± 0.22

Sequence: ACATTTGTTGATACAACCATAAAATGATAATTACACCCATAAATTGATAATTATCACACCCATAAATTGATATTGCCTCTGATCATAGTCAACTGTATATAAATACAGTTCAGACCAGCACCGACAC
- relative integration efficiency (log2) [1]: -0.116 ± 0.21
- relative integration efficiency (log2) [2]: 0.274 ± 0.022

Sequence: ACATTTGTTGATACAACCATATATTGATATCTCCAACCATAAGTTGATATTTTTCACAACCATAAAATGATAATTACTCTGATCATAGTCAGACCAACATTGCTACGACCCGTATTCGCACCGACAC
- relative integration efficiency (log2) [1]: -0.279 ± 0.084
- relative integration efficiency (log2) [2]: -0.448 ± 0.2

Sequence: ACATTTGTGGATCCAACCATAAAATGATAATTACACCCATAAATTGATCATTATCACACCCAATTTAACTATAACGCTCTGATCATAGTCAGACCAACATTGCTACGACCCGTATTCGCACCGACAC
- relative integration efficiency (log2) [1]: -1.6 ± 0.2
- relative integration efficiency (log2) [2]: 1.72 ± 0.11

Sequence: ACATTTGTTGATACACCCATAAATTGATAATTACAACCATAAGTTGATATTTTTCACAACCATAAAATGATAATTACTCTGATCATAGTCAGACCAACATTGCTACGACCCGTATTCGCACCGACAC
- relative integration efficiency (log2) [1]: -0.644 ± 0.31
- relative integration efficiency (log2) [2]: -0.748 ± 0.17

Sequence: ACATTTGTTGATACACCCATAAATTGATAATTACAACCATAAAATGATAATTATCACAACCATAAGTTGATATTTTCTCTGATCATAGTCAGACCAACATTGCTACGACCCGTATTCGCACCGACAC
- relative integration efficiency (log2) [1]: -0.795 ± 0.13
- relative integration efficiency (log2) [2]: -0.36 ± 0.66

Sequence: ACATTTGTTGATACAACCATAAAATGATAATTACACCCATAAATTGATAATTATGACACCGAATTTAACTATAACGCTCTGATCATAGTCAGACCAACATTGCTACGACCCGTATTCGCACCGACAC
- relative integration efficiency (log2) [1]: -1.22 ± 0.39
- relative integration efficiency (log2) [2]: 2.37 ± 0.096

Sequence: ACATTTGTTGATACCACCATCAAATGGTAATTCCACCCATAAATTGATAATTATCACACCCAATTTAACTATAACGCTCTGATCATAGTCAGACCAACATTGCTACGACCCGTATTCGCACCGACAC
- relative integration efficiency (log2) [1]: -3.19 ± 0.23
- relative integration efficiency (log2) [2]: -0.205 ± 0.08

Sequence: ACATTTGTTGATACACCCATAAATTGATAATTACAACCATAAGTTGATATTTTTCACAACCATAAGTTGATATTTTCTCTGATCATAGTCAGACCAACATTGCTACGACCCGTATTCGCACCGACAC
- relative integration efficiency (log2) [1]: -0.543 ± 0.19
- relative integration efficiency (log2) [2]: -0.275 ± 0.18
